The labels stand for the following.
B1: TPR 5TU (parent)
chain: GGAUCUUCUCGAUCUAACAAAAAAGACAAAUCUGCCACAAAGCUUGAGAGCAUCUUCGGAUGCAGAGGCGGCAGCCUUCGGUGGCGCGAUAGCGCCAACGUUCUCAACUAUGACACGCAAAACGCGUGCUCCGUUGAAUGGAGUUUAUCAUG

Variants at the floor of the assay were thinned out.

In this series the parent is B1. Description: polymerase ribozyme fitness, log enrichment relative to wild type (log ratio); higher = more active; in vitro selection for triplet polymerase activity. In outline:
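For each subunit of a heterodimeric triplet polymerase ribozyme, a mutant library was built by PCR and transcribed, then taken through a single in vitro selection round in triplicate. Selection involved annealing to a biotinylated primer, the partner subunit and triplets, incubation frozen at −7 °C, gel excision of extended constructs, capture on streptavidin beads and RT-PCR. Genotypes were retained after Illumina sequencing of inputs and outputs only with ≥10 input reads and ≥1 read in each output. Fitness is defined as the logarithm of a genotype's enrichment relative to wild-type enrichment, using inverse-variance-weighted averages across replicates, with the logarithm taken to base 2.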
Consider U55G G143C, for which the “polymerase ribozyme fitness (log ratio)” value was -2.79.
The result for U55G G143A reads -0.655.
Under U56A G58A A89C C95G A122C G124C G141C stands -1.54; under U56A G86A, -1.16; under U56A C93U G141A, -3.72.
Under U56A A64U stands -4.19; under U56A U61A C96U U101A, -1.95; under U56A C57U, 0.273.
With U56A C96U A138U, the “polymerase ribozyme fitness (log ratio)” value is -4.06.
The result for U56A C85U A121U C123G G124A U134A reads -2.61; that for U56A C95A C103G C132A U146A, at most -4.2.
Under U56A G136A stands -0.463; under U56A A91U C125U C132U G140A U148A, at most -4.2; under U56A C87A C105G G128C, at most -4.2.
For the variant U55G U127C, the “polymerase ribozyme fitness (log ratio)” value is -1.36.
The result for U55G U127A reads -3.34; that for U55G U145A, -0.604.
In the case of U56A C96U C116U G143A, the “polymerase ribozyme fitness (log ratio)” value is -3.36.
Under U56A G94U C95A G143U stands -3.39.
For U56A C87G G94C U104C G117U A119U U134C, the “polymerase ribozyme fitness (log ratio)” value was -3.94.
Under U56A G84A stands -1.06.
On to U56A G92A, for which the “polymerase ribozyme fitness (log ratio)” value is -2.28.
Under U56A G92C stands -1.7; under U56A C57A C85U C87U, -0.523; under U56A G88U C114A, at most -4.2.
Turning to U56A U61C, the “polymerase ribozyme fitness (log ratio)” value was -3.45.
The result for U56A G59C U144G reads 2.23; that for U56A C79U G83A, at most -4.2; that for U56A C85U A142U, -1.06.
The result for U56A A89U reads -0.431.
Consider U56A C93U, for which the “polymerase ribozyme fitness (log ratio)” value is -2.13.
The result for U56A C93A reads -2.63; that for U56A C93G, -3.55; that for U55G G94A A98U C118A, -1.56.
Take U56A C96G U139G: the “polymerase ribozyme fitness (log ratio)” value was -0.96.
The result for U56A G58A G88C reads -3.84; that for U56A G58A C87G G133U, at most -4.2.
Under U56A G80U C99A A122C stands -1.16.
As for U56A G88C A142U, the “polymerase ribozyme fitness (log ratio)” value was at most -4.2.
The result for U56A U61A C76G G84A C103G reads at most -4.2; that for U56A C57G C87A A119G G126A, at most -4.2.
Under U56A A115G G124C stands -1.61; under U56A A60G C125G, -0.563.
U56A C96U: the “polymerase ribozyme fitness (log ratio)” value was -0.499.
The result for U56A A110C reads -3.84; that for U56A G92U U102A U134C, -1.59; that for U56A G58C G92U C93A C118A, -3.82.
For U56A G152U, the “polymerase ribozyme fitness (log ratio)” value was -2.37.
The result for U56A G152A reads -2.52; that for U56A C57U U82A G84A G92U A106C G143C, at most -4.2.
The result for U56A A89G C99A reads -1.89; that for U56A U78G G92A U144A, at most -4.2.
Under U55G G133U stands -4.16.
With U56A G62A C76U G81A C87U C95U, the “polymerase ribozyme fitness (log ratio)” value was -1.49.
The result for U56A C103U reads -0.0268; that for U56A C103G, -0.914; that for U56A G70A C85U A97G G133C, at most -4.2.
For the variant U56A G59A C96U, the “polymerase ribozyme fitness (log ratio)” value was 0.392.
The result for U56A C95U C96G A110G A119G G152U reads -4.13; that for U56A G58U A115G, -0.802.
Under U56A C87U A98U C116G stands 0.0809.
On to U56A A73G, for which the “polymerase ribozyme fitness (log ratio)” value was -0.236.
The result for U56A A89U C96G reads -1.
Regarding U56A G92C U139A G140U, the “polymerase ribozyme fitness (log ratio)” value is -3.76.
The result for U56A C95U A98U reads -1.6; that for U56A C95U A98C, -0.392; that for U56A G88U U104C G124U, at most -4.2.
Under U55G U56A G68A C96U stands at most -4.2; under U56A A115C, -0.798; under U56A G59A A113C G152U, at most -4.2.
Under U56A G67C C93U C103A U130A U148C stands at most -4.2.
U56A C103A A110G U144G: the “polymerase ribozyme fitness (log ratio)” value is -3.91.
Under U56A U82C C93U stands -1.41; under U56A C75G C93A A98G A106C G141A, at most -4.2.
The result for U56A G70C reads -3.24.
Under U56A C85U G128U stands -2.89; under U56A C118U C123G U144C, -0.722; under U56A A66G C95U C99U A120G, at most -4.2.
As to U56A C57G A113C, the “polymerase ribozyme fitness (log ratio)” value was -1.82.
With U55G U134A U139A, the “polymerase ribozyme fitness (log ratio)” value is at most -4.2.
Under U56A C69U A106G stands -1.79; under U56A C96A C103U, 0.293.
For the variant U55G U134C G143U, the “polymerase ribozyme fitness (log ratio)” value is -1.98.

Values taken from the RNAGym collection of RNA variant scans (doi:10.1073/pnas.2313332121).
